Drawing on PMC10907169, this text covers stoichiometry N for 1 molecule.

“And” between values parts separate entries of the source, which are not always exact repeats. Identical values can stand only once.

For this assay, the target named is T1, Full-length human KIF5A heavy chain (WT), C-terminal FLAG tag (human), Q12840.
T1 chain: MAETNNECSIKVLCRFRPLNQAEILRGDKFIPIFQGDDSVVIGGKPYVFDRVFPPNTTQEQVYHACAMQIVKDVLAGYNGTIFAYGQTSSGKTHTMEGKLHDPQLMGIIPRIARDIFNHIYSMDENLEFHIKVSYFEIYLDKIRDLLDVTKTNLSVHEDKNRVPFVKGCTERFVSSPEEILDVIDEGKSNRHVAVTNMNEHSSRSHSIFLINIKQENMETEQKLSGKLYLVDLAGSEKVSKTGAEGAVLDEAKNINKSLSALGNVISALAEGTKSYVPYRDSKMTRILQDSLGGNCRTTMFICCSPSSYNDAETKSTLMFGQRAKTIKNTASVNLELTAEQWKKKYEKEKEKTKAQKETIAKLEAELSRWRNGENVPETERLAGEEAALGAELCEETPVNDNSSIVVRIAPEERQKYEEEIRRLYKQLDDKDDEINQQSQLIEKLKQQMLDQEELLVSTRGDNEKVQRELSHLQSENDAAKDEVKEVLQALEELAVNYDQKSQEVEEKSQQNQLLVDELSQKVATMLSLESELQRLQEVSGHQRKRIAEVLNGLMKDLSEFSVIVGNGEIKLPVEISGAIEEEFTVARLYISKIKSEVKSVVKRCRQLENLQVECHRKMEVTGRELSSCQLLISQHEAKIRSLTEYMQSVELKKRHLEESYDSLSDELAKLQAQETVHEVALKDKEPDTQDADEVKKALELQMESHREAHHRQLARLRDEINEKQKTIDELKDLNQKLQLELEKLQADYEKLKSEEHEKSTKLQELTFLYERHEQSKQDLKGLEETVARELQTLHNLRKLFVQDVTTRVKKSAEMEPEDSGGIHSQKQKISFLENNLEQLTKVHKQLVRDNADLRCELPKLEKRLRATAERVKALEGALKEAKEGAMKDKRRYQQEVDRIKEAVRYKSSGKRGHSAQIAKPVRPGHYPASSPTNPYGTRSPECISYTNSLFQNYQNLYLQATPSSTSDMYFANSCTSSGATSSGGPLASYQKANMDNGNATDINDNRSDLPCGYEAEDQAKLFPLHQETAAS
Briefly: mass photometry; single-molecule landing assay, Refeyn OneMP, 25 nM KIF5A, room temperature (~23 °C); results say low salt buffer (150 mM KCl), methods name PBS; monomer to dimer, and dimers to tetramer. To be noted: remark: other sources report otherwise.

B1: Full-length human KIF5A heavy chain (WT), C-terminal FLAG tag, Q12840 1-1032 (natural protein)
chain: T1 chain
In the case of B1, the stoichiometry N was 2 and 4.

Usually stoichiometry N stands for a count of units in the complex or per binding partner.
